Assay results reported in paper doi:10.1101/808618v2.

Tests used:
Test in all cases: purified protein
[1] = substrate: O=c1[nH]c(=O)c2ncn([C@@H]3O[C@H](COP(=O)(O)O)[C@@H](O)[C@H]3O)c2[nH]1; details: pH 8.5, 25 °C, 20 mM MgCl2, ATP 2 mM, Gln 5 mM fixed
[2] = substrate: Nc1ncnc2c1ncn2[C@@H]1O[C@H](COP(=O)(O)OP(=O)(O)OP(=O)(O)O)[C@@H](O)[C@H]1O; details: pH 8.5, 25 °C, 20 mM MgCl2, XMP […], Gln 5 mM fixed
[3] = substrate: NC(=O)CC[C@H](N)C(=O)O; details: pH 8.5, 25 °C, 20 mM MgCl2, XMP […], ATP 2 mM fixed

B1: PfGMPS (Plasmodium falciparum 3D7) (protein)
chain: MEGEEYDKILVLNFGSQYFHLIVKRLNNIKIFSETKDYGVELKDIKDMNIKGVILSGGPYSVTEAGSPHLKKEVFEYFLEKKIPIFGICYGMQEIAVQMNGEVKKSKTSEYGCTDVNILRNDNINNITYCRNFGDSSSAMDLYSNYKLMNETCCLFENIKSDITTVWMNHNDEVTKIPENFYLVSSSENCLICSIYNKEYNIYGVQYHPEVYESLDGELMFYNFAYNICKCKKQFDPIRYHELELKNIEKYKHDHYVIAAMSGGIDSTVAAAYTHKIFKERFFGIFIDNGLLRKNEAENVYTFLKSTFPDMNITKIDASENFLSNLQGVTDPEQKRKIIGKLFIEEFEKAVNNIDIDINKTFLLQGTLYPDIIESKCSKNLSDTIKTHHNVGGLPKNLKFKLFEPFKYLFKDDVKTLSRELNLPEEITNRHPFPGPGLAIRVIGEINKHKLNILREVDDIFINDLKQYGLYNQISQAFAVLLSSKSVGVRGDARSYDYVCVLRAVKTSSFMTANWYQIPYDILDKITTRILSEVKGVNRILYDVSSKPPATIEFE
Question: Which Km [1] does the source give for B1 here?
Answer: 7.1 ± 1 µM

Question: And the kcat [1]?
Answer: 0.741 ± 0.058 s⁻¹

Question: What about the Km [2] of the same protein?
Answer: 119 ± 2 µM

Question: What about the kcat [2] of the same protein?
Answer: 0.893 ± 0.039 s⁻¹

Question: And the Km [3]?
Answer: 330 ± 20 µM

Question: And the kcat [3]?
Answer: 0.766 ± 0.005 s⁻¹
